According to IntAct's records for PubMed 25814554:

B1: Pleckstrin homology domain-containing family S member 1 (Homo sapiens), Q5SXH7-1 (parent)
chain: MAGGKQFTFSYENEVCKQDYFIKSPPSQLFSSVTSWKKRFFILSKAGEKSFSLSYYKDHHHRGSIEIDQNSSVEVGISSQEKMQSVQKMFKCHPDEVMSIRTTNREYFLIGHDREKIKDWVSFMSSFRQDIKATQQNTEEELSLGNKRTLFYSSPLLGPSSTSEAVGSSSPRNGLQDKHLMEQSSPGFRQTHLQDLSEATQDVKEENHYLTPRSVLLELDNIIASSDSGESIETDGPDQVSGRIECHYEPMESYFFKETSHESVDSSKEEPQTLPETQDGDLHLQEQGSGIDWCLSPADVEAQTTNDQKGSASLTVVQLSILINNIPDESQVEKLNVFLSPPDVINYLALTEATGRICVSQWEGPPRLGCIFCHGDHLLAVNDLKPQSLEEVSLFLTRSIQKEKLKLTIGRIPNSETFHAASCMCPSKCQSAAPSQLDKPRLNRAPKRSPAIKKSQQKGARE
B2: Tetraspanin-2 (Homo sapiens), O60636 (parent)
chain: MGRFRGGLRCIKYLLLGFNLLFWLAGSAVIAFGLWFRFGGAIKELSSEDKSPEYFYVGLYVLVGAGALMMAVGFFGCCGAMRESQCVLGSFFTCLLVIFAAEVTTGVFAFIGKGVAIRHVQTMYEEAYNDYLKDRGKGNGTLITFHSTFQCCGKESSEQVQPTCPKELLGHKNCIDEIETIISVKLQLIGIVGIGIAGLTIFGMIFSMVLCCAIRNSRDVI

Variants of: B1
Conditions: with p55g_human PIK3R3, Q92569

Variant | effect of a mutation on the interaction
D68F | disrupting interaction

Variants of: B2
Conditions: with grb2_human GRB2, P62993
Sequence of grb2_human GRB2, P62993 (P62993 whole entry, looked up): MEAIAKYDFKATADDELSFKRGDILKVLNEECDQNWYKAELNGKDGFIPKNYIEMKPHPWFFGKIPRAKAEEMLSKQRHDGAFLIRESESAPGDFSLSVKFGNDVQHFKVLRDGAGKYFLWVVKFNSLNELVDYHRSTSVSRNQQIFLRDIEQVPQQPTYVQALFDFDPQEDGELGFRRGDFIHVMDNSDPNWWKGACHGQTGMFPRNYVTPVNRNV

Variant | effect of a mutation on the interaction
Y124F | disrupting interaction

Variants of: B2
Conditions: with p55g_human PIK3R3, Q92569

Variant | effect of a mutation on the interaction
Y124F | disrupting interaction
